Ends that are not written are not given here.
Assays:
Experiment in all cases: cyclic peptide substitution array
ApoC3 peptide P69N = target: T1, ApoC3 peptide P69N (human, not fully specified; cyclic (thioether))
T1 peptide: DKFSEFWDLDNEV
Outline: (§1)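 Peptide microarrays incubated with antibody samples, then stained with goat anti-human IgG (Fc) DyLight680 and anti-HA DyLight800 control antibodies, scanned at intensity 7/7 (red/green). Secondary-only pre-stain checked background binding; framing HA peptides served as quality control; substitution effects read as changes in spot intensity.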

ApoC3 peptide D59G = target: T2, ApoC3 peptide D59G (human, thioether (positions not given here); not fully specified (C-terminus, bridges))
T2 peptide: GKFSEFWDLDPEV
Outline: as §1

ApoC3 peptide F64I = target: T3, ApoC3 peptide F64I (human, thioether (positions not given here); not fully specified (bridges); also: cyclic (thioether), positions not given here)
T3 peptide: DKFSEIWDLDPEV
Outline: as §1

ApoC3 peptide F61Y = target: T4, ApoC3 peptide F61Y (human, cyclic (thioether))
T4 peptide: DKYSEFWDLDPEV
Outline: as §1

ApoC3 peptide D66S = target: T5, ApoC3 peptide D66S (human, not fully specified; cyclic (thioether))
T5 peptide: DKFSEFWSLDPEV
Outline: as §1

ApoC3 peptide L67A = target: T6, ApoC3 peptide L67A (human, not fully specified; cyclic (thioether))
T6 peptide: DKFSEFWDADPEV
Outline: as §1

ApoC3 peptide V71C = target: T7, ApoC3 peptide V71C (human, thioether (positions not given here); also: cyclic (thioether), ring places not given here)
T7 peptide: DKFSEFWDLDPEC
Outline: as §1

ApoC3 peptide P69D = target: T8, ApoC3 peptide P69D (human, not fully specified; cyclic (thioether))
T8 peptide: DKFSEFWDLDDEV
Outline: as §1

ApoC3 peptide L67V = target: T9, ApoC3 peptide L67V (human, thioether (positions not given here); not fully specified (bridges); also: thioether between a C-terminal Cys side chain and a modified N-terminus, the Cys is not in the chain)
T9 peptide: DKFSEFWDVDPEV
Outline: as §1

ApoC3 peptide S62E = target: T10, ApoC3 peptide S62E (human, not fully specified; cyclic (thioether))
T10 peptide: DKFEEFWDLDPEV
Outline: as §1

ApoC3 peptide E63L = target: T11, ApoC3 peptide E63L (human, cyclic (thioether))
T11 peptide: DKFSLFWDLDPEV
Outline: as §1

ApoC3 peptide D68Q = target: T12, ApoC3 peptide D68Q (human, cyclic (thioether))
T12 peptide: DKFSEFWDLQPEV
Outline: as §1

ApoC3 peptide D68F = target: T13, ApoC3 peptide D68F (human, cyclic (thioether))
T13 peptide: DKFSEFWDLFPEV
Outline: as §1

ApoC3 peptide D66L = target: T14, ApoC3 peptide D66L (human, not fully specified; cyclic (thioether))
T14 peptide: DKFSEFWLLDPEV
Outline: as §1

ApoC3 peptide D66F = target: T15, ApoC3 peptide D66F (human, not fully specified; cyclic (thioether))
T15 peptide: DKFSEFWFLDPEV
Outline: as §1

ApoC3 peptide F61E = target: T16, ApoC3 peptide F61E (human, cyclic (thioether))
T16 peptide: DKESEFWDLDPEV
Outline: as §1

ApoC3 peptide S62C = target: T17, ApoC3 peptide S62C (human, not fully specified; cyclic (thioether))
T17 peptide: DKFCEFWDLDPEV
Outline: as §1

ApoC3 peptide E70K = target: T18, ApoC3 peptide E70K (human, cyclic (thioether))
T18 peptide: DKFSEFWDLDPKV
Outline: as §1

ApoC3 peptide E63A = target: T19, ApoC3 peptide E63A (human, not fully specified; cyclic (thioether))
T19 peptide: DKFSAFWDLDPEV
Outline: as §1

ApoC3 peptide F64T = target: T20, ApoC3 peptide F64T (human, thioether (positions not given here); not fully specified (bridges); also: cyclic (thioether), positions not given here)
T20 peptide: DKFSETWDLDPEV
Outline: as §1

ApoC3 peptide D68P = target: T21, ApoC3 peptide D68P (human, cyclic (thioether))
T21 peptide: DKFSEFWDLPPEV
Outline: as §1

ApoC3 peptide P69T = target: T22, ApoC3 peptide P69T (human, not fully specified; cyclic (thioether))
T22 peptide: DKFSEFWDLDTEV
Outline: as §1

ApoC3 peptide P69M = target: T23, ApoC3 peptide P69M (human, not fully specified; cyclic (thioether))
T23 peptide: DKFSEFWDLDMEV
Outline: as §1

ApoC3 peptide E70C = target: T24, ApoC3 peptide E70C (human, cyclic (thioether))
T24 peptide: DKFSEFWDLDPCV
Outline: as §1

ApoC3 peptide L67D = target: T25, ApoC3 peptide L67D (human, thioether (positions not given here); not fully specified (bridges); also: thioether between a C-terminal Cys side chain and a modified N-terminus, the Cys is not in the chain)
T25 peptide: DKFSEFWDDDPEV
Outline: as §1

ApoC3 peptide E63Q = target: T26, ApoC3 peptide E63Q (human, cyclic (thioether))
T26 peptide: DKFSQFWDLDPEV
Outline: as §1

ApoC3 peptide V71F = target: T27, ApoC3 peptide V71F (human, thioether (positions not given here); also: cyclic (thioether), ring places not given here)
T27 peptide: DKFSEFWDLDPEF
Outline: as §1

ApoC3 peptide V71M = target: T28, ApoC3 peptide V71M (human, thioether (positions not given here); also: cyclic (thioether), ring places not given here)
T28 peptide: DKFSEFWDLDPEM
Outline: as §1

B1: Llama antibody 5E5 (antibody, V domains shown)
VH: QLQLVESGGGLVQPGGSLRLSCAASGFTFGTYSMRWVRQVPRKALEWVSSISTDGGGTAYRDSVKGRFTISRDNAKNTLYLQMNNLKPEDTAIYYCVIAGYSDWGQGTQVTVSS
VL: ATMLTQSPGSLSVVPGESASISCKTSQGLVHSDGKTYFYWFLQKPGQSPQQLIYQVSNRASGVPDRFTGSGSGTDFTLKISGVKAEDAGVYYCAQGTYYPHTFGSGTRLEIK
notes: detected with goat anti-human IgG (Fc); also called mAb 5E5
- % of binding to wild-type peptide (ApoC3 peptide P69N): 19.4%
- % of binding to wild-type peptide (ApoC3 peptide D59G): 60.3%
- % of binding to wild-type peptide (ApoC3 peptide F64I): 69.3%
- % of binding to wild-type peptide (ApoC3 peptide F61Y): 126%
- % of binding to wild-type peptide (ApoC3 peptide D66S): 0%
- % of binding to wild-type peptide (ApoC3 peptide L67A): 21%
- % of binding to wild-type peptide (ApoC3 peptide V71C): 56.9%
- % of binding to wild-type peptide (ApoC3 peptide P69D): 21.6%
- % of binding to wild-type peptide (ApoC3 peptide L67V): 84.8%
- % of binding to wild-type peptide (ApoC3 peptide S62E): 0%
- % of binding to wild-type peptide (ApoC3 peptide E63L): 10.1%
- % of binding to wild-type peptide (ApoC3 peptide D68Q): 0.96%
- % of binding to wild-type peptide (ApoC3 peptide D68F): 0%
- % of binding to wild-type peptide (ApoC3 peptide D66L): 0%
- % of binding to wild-type peptide (ApoC3 peptide D66F): 0%
- % of binding to wild-type peptide (ApoC3 peptide F61E): 180%
- % of binding to wild-type peptide (ApoC3 peptide S62C): 0%
- % of binding to wild-type peptide (ApoC3 peptide E70K): 60.1%
- % of binding to wild-type peptide (ApoC3 peptide E63A): 90.1%
- % of binding to wild-type peptide (ApoC3 peptide F64T): 467%
- % of binding to wild-type peptide (ApoC3 peptide D68P): 28.6%
- % of binding to wild-type peptide (ApoC3 peptide P69T): 113%
- % of binding to wild-type peptide (ApoC3 peptide P69M): 29.3%
- % of binding to wild-type peptide (ApoC3 peptide E70C): 27.1%
- % of binding to wild-type peptide (ApoC3 peptide L67D): 0.99%
- % of binding to wild-type peptide (ApoC3 peptide E63Q): 32.4%
- % of binding to wild-type peptide (ApoC3 peptide V71F): 81.4%
- % of binding to wild-type peptide (ApoC3 peptide V71M): 138%

Reference: patent US20190241648A1 (STATEN BIOTECHNOLOGY B V, published 2019)
